Patent US20150005237A1, “PEPTIDIC INHIBITOR OF SIGNAL TRANSMISSION FROM G-ALPHA-S TO G-ALPHA-I-COUPLED RECEPTOR CASCADES” (UNIVERSITÄT INNSBRUCK, priority 2011, published 2015)

Biological target: T1, recombinant GST-Gαi3 (Rattus norvegicus, UniProt P08753)
T1 construct: A fusion protein was constructed consisting of full-length Gαi3 and gluthatione S-transferase (GST); made in house; host or cells: Escherichia coli BL21
Experiment: SPOT peptide dot blot overlay with recombinant GST-Gαi3
Format: binding
Conditions: spotted 25 mers overlaid with GST-Gαi3 10 μg/ml
Source text: FIG. 4 Dot blot analysis of conserved amino acids (core element of SEQ ID No. 1, 2, extended sequences SEQ ID No. 4 and 5) in the Reggai sequence. Spotted peptides containing the Reggai sequence (25 mers) of RIIβ (Reg) (SEQ ID No. 7), its mutant functional variant (SEQ ID No. 8) and non-functional peptides not containing the Reggai core element of SEQ ID No. 1 variant (SEQ ID No. 9 to 15) (exchanged amino acids are underlined) were overlaid with recombinant GST-Gαi3. The box indicates the Reggai sequence. Densitometric analysis of the average of two independent dot blot experiments is shown as bar graph. […] SEQ ID No. 9 to 15 in FIG. 4 (2nd to 7th and 9th sequence) are non-inventive comparative peptides.
Overlapping peptides either of the wild type PKA regulatory subunit RIIβ (accession number: NP_002727) or peptides containing substitutions of conserved amino acids in the Reggai sequence were SPOT-synthesized (Synthetic peptide arrays on membrane supports) on distinct coordinates of a cellulose membrane (shown in FIG. 1c; starting from the N-terminus of RegIIβ with amino acid 1-25 [coordinate A1], amino acid 6-30 [coordinate A2], etc.). […] Interactions were detected with rabbit anti-GST and secondary horseradish peroxidase antibodies by a procedure identical to immunoblotting (IB), (see Stefan et al., J. Am. Soc. Nephrol. 18, 199-212 (2007)). […]

T1 sequence (P08753 whole entry, the tested form may be a part): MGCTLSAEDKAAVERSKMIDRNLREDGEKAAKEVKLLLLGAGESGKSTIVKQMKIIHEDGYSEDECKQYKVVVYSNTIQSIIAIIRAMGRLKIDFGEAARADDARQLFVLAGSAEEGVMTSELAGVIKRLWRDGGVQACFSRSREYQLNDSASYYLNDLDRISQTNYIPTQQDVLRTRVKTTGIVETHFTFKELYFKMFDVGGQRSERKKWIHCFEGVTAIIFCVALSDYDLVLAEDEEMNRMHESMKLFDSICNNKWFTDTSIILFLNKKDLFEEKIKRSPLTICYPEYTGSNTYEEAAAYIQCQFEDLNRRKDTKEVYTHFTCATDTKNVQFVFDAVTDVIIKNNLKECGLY

binding of spotted peptide to recombinant GST-Gαi3 (dot blot): functional
Sequence: QGASADSFFIVESGE (listed as Homo sapiens) [SEQ ID No. 8]
